Data on one substance can be found in doi:10.1101/112029.

The target in this assay is untagged murine saposin A (SapA), wild type (murine). Nature of the assay: crystal structure.

The stoichiometry N is a count of units in the complex or per binding partner. In turn, “untagged murine saposin A (SapA), wild type (natural protein)” had a stoichiometry N of 2.
